Columns and labels:
[1] = system: subjects with moderately to severely active Crohn's disease; test: placebo-controlled one or two infusion study in moderately to severely active Crohn's disease; assay type: in vivo; settings: for subjects withdrawn due to adverse events: placebo 2; for subjects reporting a serious adverse event: placebo 9
Description: Another earlier study was a double-blind, placebo-controlled, parallel group, multicenter, efficacy, safety, and tolerability study of either one or two intravenous infusions of placebo, 3 or 6 mg/kg natalizumab in subjects with moderately to severely active Crohn's disease. […] Sixty-eight subjects were randomized to a single infusion of 3 mg/kg, 66 to two infusions of 3 mg/kg at a 4-week interval, 51 to two infusions of 6 mg/kg at a 4-week interval and 63 to receive placebo.

[2] = system: pregnant cynomolgus monkeys; test: follow-up reproductive toxicity study; assay type: in vivo, cynomolgus monkey; settings: two in the control
Description: (§1) In mice, there is evidence that α4 integrin and VCAM-1 play a role in placental and cardiac development, and they may also play a wider role in fetal development. There is, therefore, a risk of an abortifacient effect or teratogenicity if α4 integrin is blocked by natalizumab. A preliminary reproductive toxicity study exposed groups of five pregnant cynomolgus monkeys to repeated intravenous doses of 0.06, 0.3, or 30 mg/kg natalizumab. One of five pregnant females in the 30 mg/kg group aborted at Day 31 of gestation after receiving five doses of natalizumab. Because the overall rate of abortion fell within the rate of spontaneous abortion in this species, the event was not believed to be related to natalizumab. An ongoing follow-up reproductive toxicity study has exposed groups of 10 to 15 pregnant cynomolgus monkeys to repeated intravenous doses of 3, 10, or 30 mg/kg. Embryo deaths have occurred at similar rates in all treatment groups: two in the control, one in the 3 mg/kg, two in the 10 mg/kg and two in the 30 mg/kg groups respectively. As a precaution, women of childbearing potential must utilize effective contraception throughout the duration of the study and for at least 3 months after the last infusion of study drug, and must have a negative pregnancy test at the time of each natalizumab dosing.

[3] = system: mice, guinea pigs, and monkeys; settings: in vivo
Description: Single- and multiple-dose toxicity studies have been performed in mice, guinea pigs, and monkeys. All toxicology studies were carried out using natalizumab and included an acute study in guinea pigs, subacute studies in mouse and cynomolgus monkeys, and mutagenicity and tissue cross-reactivity studies.

[4] = system: pregnant cynomolgus monkeys; test: preliminary reproductive toxicity study; assay type: in vivo; settings: 30 mg/kg group, repeated intravenous doses, Day 31 of gestation after five doses
Description: as §1

[5] = Week 6, two infusions of 3 mg/kg

natalizumab
remission rate (CDAI<150) [1, 5]: 46% | response rate (≧70 point drop in CDAI) [1, 5]: 73% | response rate (≧100 drop in CDAI) [1, 5]: 56% | remission rates (CDAI<150) ([1]; Weeks 8 and 12, two infusions of 3 mg/kg and two infusions of 6 mg/kg): 41-43% | C-reactive protein ([1]; in vivo): decreases | quality of life, Inflammatory Bowel Disease Questionnaire ([1]; in vivo): Statistically significant improvements | subjects withdrawn due to adverse events ([1]; single 3.0 mg/kg infusion): 1 | subjects reporting a serious adverse event ([1]; single 3.0 mg/kg infusion): 8 | safety and tolerability ([1]; subjects with active CD): safe and well tolerated | subjects withdrawn due to adverse events ([1]; two 3 mg/kg infusions): 2 | subjects reporting a serious adverse event ([1]; two 3 mg/kg infusions): 8 | subjects withdrawn due to adverse events ([1]; two 6 mg/kg infusions): 3 | subjects reporting a serious adverse event ([1]; two 6 mg/kg infusions): 7 | embryo deaths ([2]; 3 mg/kg repeated intravenous doses): one | embryo deaths ([2]; 10 mg/kg repeated intravenous doses): two | embryo deaths ([2]; 30 mg/kg repeated intravenous doses): two | clinical or postmortem evidence of toxicity [3]: did not demonstrate clinical or postmortem evidence of significant toxicity | pregnant females that aborted [4]: One of five

Source: patent US20150056205A1, “STEROID SPARING AGENTS AND METHODS OF USING SAME” (BIOGEN IDEC MA INC., priority 2004, published 2015)
